This series concerns the molecule itself. The series can be described thus: crystal structure; co-crystal structure of celastrol with mouse GSTP1.

The record followed here is PMC8160069, “Ethacrynic acid targets GSTM1 to ameliorate obesity by promoting browning of white adipocytes” (Protein & Cell, 2020).

B1: mouse GSTP1 (enzyme, UniProt P19157 1-210, looked up)
chain: MPPYTIVYFPVRGRCEAMRMLLADQGQSWKEEVVTIDTWMQGLLKPTCLYGQLPKFEDGDLTLYQSNAILRHLGRSLGLYGKNQREAAQMDMVNDGVEDLRGKYVTLIYTNYENGKNDYVKALPGHLKPFETLLSQNQGGKAFIVGDQISFADYNLLDLLLIHQVLAPGCLDNFPLLSAYVARLSARPKIKAFLSSPEHVNRPINGNGKQ
notes: GSTP1 (glutathione S-transferase pi 1), mouse; co-crystallised with celastrol; also called GST pi
Take B1: the binding result is recorded as “binds”.
